{"source": "paper PMC5636895", "key": {"[1]": {"target": "platelet integrin αIIbβ3 (human) (UniProt P05106)", "experiment": "optical trap-based force spectroscopy; as a7, with free γC-12 or cRGDFK present; concentrations not given"}, "[2]": {"target": "platelet integrin αIIbβ3 (human) (UniProt P05106)", "experiment": "optical trap-based force spectroscopy; as a5, with free γC-12 or cRGDFK present; concentrations not given"}, "[3]": {"target": "platelet integrin αIIbβ3 (human) (UniProt P05106)", "experiment": "optical trap-based force spectroscopy; as a1, with a competitive antagonist of αIIbβ3 (γC-12, cRGDFK or eptifibatide) present; concentrations not given"}, "fibrinogen (human)": {"target": "fibrinogen (human) (UniProt P02671)", "sequence (P02671 36-866, chain 1 of 3)": "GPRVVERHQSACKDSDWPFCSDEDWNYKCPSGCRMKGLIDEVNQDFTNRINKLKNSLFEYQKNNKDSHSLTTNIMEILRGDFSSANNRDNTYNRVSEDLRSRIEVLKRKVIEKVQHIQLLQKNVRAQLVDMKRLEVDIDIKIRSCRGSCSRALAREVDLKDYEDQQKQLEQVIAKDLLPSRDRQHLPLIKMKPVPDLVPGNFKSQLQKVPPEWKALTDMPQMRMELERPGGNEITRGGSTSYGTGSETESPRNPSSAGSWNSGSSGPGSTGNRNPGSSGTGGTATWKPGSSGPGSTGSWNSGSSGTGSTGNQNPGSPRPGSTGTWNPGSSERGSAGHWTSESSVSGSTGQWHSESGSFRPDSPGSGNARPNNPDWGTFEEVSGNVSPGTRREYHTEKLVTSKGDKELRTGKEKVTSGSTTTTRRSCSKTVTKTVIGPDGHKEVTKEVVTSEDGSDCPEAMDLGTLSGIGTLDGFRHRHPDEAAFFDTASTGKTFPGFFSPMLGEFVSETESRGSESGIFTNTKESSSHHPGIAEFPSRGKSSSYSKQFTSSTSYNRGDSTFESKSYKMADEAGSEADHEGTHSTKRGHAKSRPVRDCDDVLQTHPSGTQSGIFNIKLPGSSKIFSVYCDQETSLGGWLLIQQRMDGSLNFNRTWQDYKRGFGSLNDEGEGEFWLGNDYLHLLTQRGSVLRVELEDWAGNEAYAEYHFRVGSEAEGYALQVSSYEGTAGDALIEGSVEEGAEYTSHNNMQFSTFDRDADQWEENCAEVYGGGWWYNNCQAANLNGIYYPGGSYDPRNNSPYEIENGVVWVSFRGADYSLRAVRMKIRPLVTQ", "sequence (P02675 45-491, chain 2 of 3, further chain)": "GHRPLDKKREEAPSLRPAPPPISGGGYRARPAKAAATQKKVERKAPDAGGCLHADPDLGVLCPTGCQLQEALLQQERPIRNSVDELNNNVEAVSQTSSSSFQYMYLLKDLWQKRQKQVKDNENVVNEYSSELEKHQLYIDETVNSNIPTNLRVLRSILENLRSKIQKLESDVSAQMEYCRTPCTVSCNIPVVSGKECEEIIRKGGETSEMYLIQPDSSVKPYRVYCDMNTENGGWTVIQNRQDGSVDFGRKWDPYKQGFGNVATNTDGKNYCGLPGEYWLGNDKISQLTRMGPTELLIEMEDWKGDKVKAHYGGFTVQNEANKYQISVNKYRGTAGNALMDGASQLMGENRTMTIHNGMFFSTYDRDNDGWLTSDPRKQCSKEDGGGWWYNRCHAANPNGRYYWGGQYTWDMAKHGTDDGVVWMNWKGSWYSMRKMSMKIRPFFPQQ", "sequence (P02679 other isoform, or with tags, fused parts or gaps, chain 3 of 3, further chain)": "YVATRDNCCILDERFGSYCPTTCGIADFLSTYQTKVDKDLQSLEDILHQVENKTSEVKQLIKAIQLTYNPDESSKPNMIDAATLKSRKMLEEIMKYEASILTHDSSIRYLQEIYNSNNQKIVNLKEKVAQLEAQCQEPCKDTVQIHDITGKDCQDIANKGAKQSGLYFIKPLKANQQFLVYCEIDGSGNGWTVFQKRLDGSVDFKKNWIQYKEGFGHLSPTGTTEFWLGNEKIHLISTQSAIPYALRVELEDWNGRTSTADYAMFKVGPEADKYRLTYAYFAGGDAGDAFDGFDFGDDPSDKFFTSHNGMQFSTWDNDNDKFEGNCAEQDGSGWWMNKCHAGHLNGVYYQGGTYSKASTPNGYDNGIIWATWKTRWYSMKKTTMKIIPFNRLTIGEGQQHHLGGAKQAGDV", "experiment": "optical trap-based force spectroscopy; Mn^2+-activated αIIbβ3 on a laser-trapped latex bead tapped against a silica pedestal covalently coated with fibrinogen; 0.1 M HEPES, pH 7.4, 2 mg/ml BSA, 0.1% Triton X-100; two-state fit of the rupture force profile"}, "[4]": {"target": "polymerized fibrin (human) (UniProt P02679)", "sequence (P02679 whole entry, looked up)": "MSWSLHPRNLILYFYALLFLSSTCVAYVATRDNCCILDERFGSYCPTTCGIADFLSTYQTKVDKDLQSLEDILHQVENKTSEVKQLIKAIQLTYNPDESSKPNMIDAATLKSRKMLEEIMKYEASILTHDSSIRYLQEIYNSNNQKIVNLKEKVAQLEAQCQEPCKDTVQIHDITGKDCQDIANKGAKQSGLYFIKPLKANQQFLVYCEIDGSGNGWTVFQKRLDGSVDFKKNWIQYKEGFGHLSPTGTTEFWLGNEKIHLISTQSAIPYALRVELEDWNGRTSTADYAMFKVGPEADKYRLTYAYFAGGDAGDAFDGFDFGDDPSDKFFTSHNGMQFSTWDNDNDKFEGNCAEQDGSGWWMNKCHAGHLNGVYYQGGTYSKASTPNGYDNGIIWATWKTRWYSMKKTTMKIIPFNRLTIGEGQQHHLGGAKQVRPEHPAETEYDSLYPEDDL", "experiment": "optical trap-based force spectroscopy; Mn^2+-activated αIIbβ3 (or BSA) on a laser-trapped 2.0 µm latex bead tapped against the edge of a fibrin clot in a flow chamber; 0.1 M HEPES, pH 7.4, 2 mg/ml BSA, 0.1% Triton X-100; 5 Hz, 800 nm amplitude; clot from re-calcified plasma or from purified fibrinogen, which one gave the tabulated data is not given; two-state fit of the rupture force profile"}, "monomeric fibrin (human)": {"target": "monomeric fibrin (human) (UniProt P02679)", "experiment": "optical trap-based force spectroscopy; Mn^2+-activated αIIbβ3 on a laser-trapped latex bead tapped against a silica pedestal covalently coated with monomeric fibrin; 0.1 M HEPES, pH 7.4, 2 mg/ml BSA, 0.1% Triton X-100; two-state fit of the rupture force profile"}, "[5]": {"target": "polymerized fibrin (human) (UniProt P02679)", "experiment": "optical trap-based force spectroscopy; as a1, but with non-activated αIIbβ3 (no Mn^2+ activation) on the bead"}}, "note": "Ends that are not written are not given here."}
{"molecule": "fibrinogen γC-dodecapeptide (from UniProt P02679-2 426-437)", "values": [{"measurement": "cumulative binding probability of αIIbβ3 to fibrinogen with γC-12 present, rupture forces 30–60 pN", "setting": "[1]", "result": 1.8, "unit": "%"}, {"measurement": "cumulative binding probability of αIIbβ3 to fibrinogen with γC-12 present, rupture forces >60 pN", "setting": "[1]", "result": 0.2, "unit": "%"}, {"measurement": "cumulative binding probability of αIIbβ3 to m-fibrin with γC-12 present, rupture forces 30–60 pN", "setting": "[2]", "result": 7.4, "unit": "%"}, {"measurement": "cumulative binding probability of αIIbβ3 to m-fibrin with γC-12 present, rupture forces >60 pN", "setting": "[2]", "result": 12.3, "unit": "%"}, {"measurement": "cumulative binding probability of αIIbβ3 to p-fibrin with γC-12 present, rupture forces 30–60 pN", "setting": "[3]", "result": 2.1, "unit": "%"}, {"measurement": "cumulative binding probability of αIIbβ3 to p-fibrin with γC-12 present, rupture forces >60 pN", "setting": "[3]", "result": 0.8, "unit": "%"}]}
{"molecule": "platelet integrin αIIbβ3 (from UniProt P05106 27-788) (receptor)", "values": [{"measurement": "cumulative binding probability, rupture forces 30–60 pN", "setting": "fibrinogen (human)", "result": 4.8, "unit": "%"}, {"measurement": "cumulative binding probability, rupture forces >60 pN", "setting": "fibrinogen (human)", "result": 3.6, "unit": "%"}, {"measurement": "highest rupture force", "setting": "fibrinogen (human)", "result": "< 140", "unit": "pN"}, {"measurement": "initial probability of the high-affinity state (two-state fit)", "setting": "fibrinogen (human)", "result": 0.0063}, {"measurement": "peak of the strong rupture forces", "setting": "fibrinogen (human)", "result": "70 to 80", "unit": "pN"}, {"measurement": "cumulative binding probability, rupture forces 30–60 pN", "setting": "[4]", "result": 4.6, "unit": "%"}, {"measurement": "cumulative binding probability, rupture forces >60 pN", "setting": "[4]", "result": 3.2, "unit": "%"}, {"measurement": "initial probability of the high-affinity state (two-state fit)", "setting": "[4]", "result": 0.014}, {"measurement": "peak of the strong rupture forces", "setting": "[4]", "result": "70 to 80", "unit": "pN"}, {"measurement": "cumulative binding probability, rupture forces 30–60 pN", "setting": "monomeric fibrin (human)", "result": 21, "unit": "%"}, {"measurement": "cumulative binding probability, rupture forces >60 pN", "setting": "monomeric fibrin (human)", "result": 22, "unit": "%"}, {"measurement": "highest rupture force", "setting": "monomeric fibrin (human)", "result": "< 140", "unit": "pN"}, {"measurement": "initial probability of the high-affinity state (two-state fit)", "setting": "monomeric fibrin (human)", "result": 0.0181}, {"measurement": "peak of the strong rupture forces", "setting": "monomeric fibrin (human)", "result": "70 to 80", "unit": "pN"}, {"measurement": "cumulative binding probability, rupture forces 30–60 pN", "setting": "[5]", "result": 4.7, "unit": "%"}, {"measurement": "cumulative binding probability, rupture forces >60 pN", "setting": "[5]", "result": 1.7, "unit": "%"}]}
{"molecule": "RGDFK (also: cyclic, ring type not given here)", "note": "[cyclic RGDFK peptide]", "values": [{"measurement": "cumulative binding probability of αIIbβ3 to fibrinogen with cRGDFK present, rupture forces 30–60 pN", "setting": "[1]", "result": 2.5, "unit": "%"}, {"measurement": "cumulative binding probability of αIIbβ3 to fibrinogen with cRGDFK present, rupture forces >60 pN", "setting": "[1]", "result": 0.3, "unit": "%"}, {"measurement": "cumulative binding probability of αIIbβ3 to m-fibrin with cRGDFK present, rupture forces 30–60 pN", "setting": "[2]", "result": 5.1, "unit": "%"}, {"measurement": "cumulative binding probability of αIIbβ3 to m-fibrin with cRGDFK present, rupture forces >60 pN", "setting": "[2]", "result": 2.7, "unit": "%"}, {"measurement": "cumulative binding probability of αIIbβ3 to p-fibrin with cRGDFK present, rupture forces 30–60 pN", "setting": "[3]", "result": 2.2, "unit": "%"}, {"measurement": "cumulative binding probability of αIIbβ3 to p-fibrin with cRGDFK present, rupture forces >60 pN", "setting": "[3]", "result": 0.6, "unit": "%"}]}
